# Source: patent US20090029864A1
# T1: His-tagged Stx 2B-subunit (wild type) (enterohemorrhagic Escherichia coli O157:H7), P09386
# T1 chain: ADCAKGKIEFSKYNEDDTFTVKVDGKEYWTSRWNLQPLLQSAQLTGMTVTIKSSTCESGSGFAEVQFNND
# Molecular target: T1, His-tagged Stx 2B-subunit (wild type) …
row,Binder,RUmax
1,MAFRRNRRNA (modifications not checked) [(Met-Ala-FRRNRRN-Ala-AHA-)4-3Lys],1490 AU
2,MAKRRNPRRA (modifications not checked) [(Met-Ala-KRRNPRR-Ala-AHA-)4-3Lys],1290 AU
3,MAPPRRNRRA (modifications not checked) [(Met-Ala-PPRRNRR-Ala-AHA-)4-3Lys],1350 AU
4,MAPPPRRRRA (modifications not checked) [(Met-Ala-PPPRRRR-Ala-AHA-)4-3Lys],1250 AU
